Changes are numbered by the printed parent chain.
T1: hCMV UL128 (HEK293T transfectant) (hCMV, UniProt P16837 28-171)
T1 sequence: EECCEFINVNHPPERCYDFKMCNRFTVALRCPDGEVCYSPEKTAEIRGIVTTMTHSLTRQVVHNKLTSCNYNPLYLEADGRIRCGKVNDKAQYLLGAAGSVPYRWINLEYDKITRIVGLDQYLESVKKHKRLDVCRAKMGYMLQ

B1: 5F1 (antibody, V domains shown)
VH: AVQLVESGGGLAQPGRSLRLSCKVSGFTFSSYEMNWVRQAPGKGLEWIAYIDFTGSTIYYADSVKGRFTISRDTARNSLYLQMNKLRVEDTAVYYCVRDAGRWGTSWYYFDYWGQGTLVTVSS
VL: QSVLTQPPSVSGAPGQRVTISCTGLSSNIGAGYDIHWYQQIPGKAPKLLIYGNNNRPSGVPDRFSGSKSGTSVSLAITGLQAEDEADYYCQSYDSSLNGWVFGGGTRLTVL
notes: human IgG; also called 5F1-biotin
B2: 2B11 (antibody, V domains shown)
VH: B1 VH with Q3R, K23Q, S30G, D73N, K85S, L118R, S123P
VL: B1 VL with L25I, I50V, A82V, S95N
notes: human IgG; also called 2B11-biotin
B3: 10C6 (antibody, V domains shown)
VH: B1 VH with T28S, S31N, Y32F, A61S
VL: B1 VL
notes: human IgG; also called 10C6-biotin; 1006
B4: 15D8 (antibody, V domains shown)
VH: EVQLVQSGAEVKKPGESLKISCQASGYSFTNYWIAWVRQMPGKGLEWMGIIYPGDSDIKYSPSFRGQVTISADKSISNAFLQWRSLRASDTAMYYCARHAIRGDGFDYWGQGTLVTVSS
VL: SYELTQPPSVSVSPGQTATITCSGDKLGEKYACWYQQKPGQSPVLVMYQDTKRPSGIPERFSGSNSGNTATLTISGTRAMDEADYYCQAWDTNTVIFGGGTKLTVL
notes: human IgG; also called 15D8-biotin
B5: 4H9 (antibody, V domains shown)
VH: AVQLVESGGGLVRPGGSLRLSCAASGFTFSSHEMHWVRQAPGKGLEWLSYIDFTGSIIYYADSVRGRFTISRDNTKKSLFLQMNSLRDEDTALYYCARDGGRWGTSWYYFDYWGQGVLVTVSS
VL: QSVLTQPPSVSGAPGQRVTITCTGSSSNFGAGYDGHWYQQLPGTAPKLLIYGSNRPSGVPDRFSGSKSGTSVSLAITGLQADDEADYYCQSYDSSLSAWVFGGGTKLTVL
notes: human IgG; also called 4H9-biotin; 4H9.6
B6: 6B4 (antibody, V domains shown)
VH: QVQLVESGGGVVQPGRSLRLSCAASGFRFNEFNMHWVRQAPGKGLEWVAVISIDGRHKYNADSVEGRFTISRDNSRNTLYLQMNSLRVEDTALYYCVTDGKAVDGFSGILEFWGQGTPVTVST
VL: EIVLTQSPATLSLSPGERATLSCWASQSVGGYLAWYQQKPGQAPRLLIYDASIRATGIPARFSGSGSGTHFTLTINSLEPEDFAVYYCQQRNNWPPLTFGGGTKVEIK
notes: human IgG; also called 6B4-biotin

What was measured:
[1] = biological target: T2, hCMV glycoprotein B (gB; HEK293T transfectant) (hCMV, UniProt P06473 32-906); experiment: cell competition; competitor 2B11-biotin
T2 construct: whole, on cells; in the functional rows it stands for gB on virions or transduced cells of the strain or isolate named in the readout
T2 sequence (P06473 32-906 limits assumed): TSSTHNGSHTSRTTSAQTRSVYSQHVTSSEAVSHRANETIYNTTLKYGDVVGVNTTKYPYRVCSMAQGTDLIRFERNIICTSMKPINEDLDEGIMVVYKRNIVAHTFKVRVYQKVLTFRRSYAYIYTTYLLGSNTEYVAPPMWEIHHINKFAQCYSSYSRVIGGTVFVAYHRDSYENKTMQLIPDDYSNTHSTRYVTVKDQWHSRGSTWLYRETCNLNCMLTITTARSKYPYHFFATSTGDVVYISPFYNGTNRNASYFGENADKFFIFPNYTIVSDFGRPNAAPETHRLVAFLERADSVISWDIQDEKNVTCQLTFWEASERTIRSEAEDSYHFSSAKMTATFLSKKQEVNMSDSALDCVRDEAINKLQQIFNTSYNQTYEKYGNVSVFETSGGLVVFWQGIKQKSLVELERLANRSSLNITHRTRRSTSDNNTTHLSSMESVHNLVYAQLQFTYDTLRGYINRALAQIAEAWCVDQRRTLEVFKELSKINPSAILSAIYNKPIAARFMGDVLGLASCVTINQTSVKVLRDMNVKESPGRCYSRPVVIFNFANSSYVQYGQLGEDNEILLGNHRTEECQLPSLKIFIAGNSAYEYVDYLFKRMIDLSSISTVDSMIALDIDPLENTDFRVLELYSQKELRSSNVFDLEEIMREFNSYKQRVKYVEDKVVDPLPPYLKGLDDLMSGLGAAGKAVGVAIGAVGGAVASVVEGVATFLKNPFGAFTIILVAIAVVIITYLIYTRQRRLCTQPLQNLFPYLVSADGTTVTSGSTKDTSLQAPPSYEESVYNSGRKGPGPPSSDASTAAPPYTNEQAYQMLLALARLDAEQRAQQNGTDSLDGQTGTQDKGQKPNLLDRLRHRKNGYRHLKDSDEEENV

[2] = biological target: T2, hCMV glycoprotein B (gB; HEK293T …); experiment: cell-based or functional assay
[3] = biological target: T2, hCMV glycoprotein B (gB; HEK293T …); experiment: cell competition; competitor 4H9-biotin
[4] = biological target: T2, hCMV glycoprotein B (gB; HEK293T …); experiment: cell competition; competitor 6B4-biotin
[5] = biological target: T2, hCMV glycoprotein B (gB; HEK293T …); experiment: cell competition; competitor 7H3-biotin
[6] = biological target: T2, hCMV glycoprotein B (gB; HEK293T …); experiment: cell competition; competitor 10C6-biotin
[7] = biological target: T2, hCMV glycoprotein B (gB; HEK293T …); experiment: cell-based or functional assay; remark: listed apart in the source
[8] = biological target: T2, hCMV glycoprotein B (gB; HEK293T …); experiment: cell-based or functional assay; remark: listed apart in the source
[9] = biological target: T2, hCMV glycoprotein B (gB; HEK293T …); experiment: cell competition; competitor 5F1-biotin
[10] = biological target: T3, hCMV gH + gL + UL128 + UL130 + UL131A (5-member complex; HEK293T co-transfectant) (hCMV, UniProt P12824 24-743; P16832 31-278; P16837 1-171; P16772 1-214); experiment: cell competition; competitor 4N10-biotin
T3 construct: whole, on cells; in the functional rows it stands for the complex on virions or transduced cells of the strain or isolate named in the readout; also called gH/gL/UL128-131A complex; pentameric complex

[11] = biological target: T3, hCMV gH + gL + UL128 + UL130 + UL131A …; experiment: cell competition; competitor 15D8-biotin
[12] = biological target: T3, hCMV gH + gL + UL128 + UL130 + UL131A …; experiment: cell competition; competitor 1F11-biotin
[13] = biological target: T3, hCMV gH + gL + UL128 + UL130 + UL131A …; experiment: cell competition; competitor 10F7-biotin
[14] = biological target: T3, hCMV gH + gL + UL128 + UL130 + UL131A …; experiment: cell competition; competitor 8I21-biotin
[15] = biological target: T3, hCMV gH + gL + UL128 + UL130 + UL131A …; experiment: cell competition; competitor 5A2-biotin
[16] = biological target: T3, hCMV gH + gL + UL128 + UL130 + UL131A …; experiment: cell competition; competitor 2F4-biotin
[17] = biological target: T3, hCMV gH + gL + UL128 + UL130 + UL131A …; experiment: cell competition; competitor 2C12-biotin
[18] = biological target: T3, hCMV gH + gL + UL128 + UL130 + UL131A …; experiment: cell competition; competitor 6G4-biotin
[19] = biological target: T1, hCMV UL128 (HEK293T transfectant); experiment: cell-based or functional assay
[20] = biological target: T1, hCMV UL128 (HEK293T transfectant); experiment: cell-based or functional assay; remark: listed apart in the source
[21] = biological target: T3, hCMV gH + gL + UL128 + UL130 + UL131A …; experiment: cell competition; competitor 4I22-biotin

| Binder | Inhibition of binding (%) [1] [%] | 50% neutralization VR1814, BM-MSC [2] [µg/mL] | 50% neutralization VR1814, Mo-DC [2] [µg/mL] | Inhibition of binding (%) [3] [%] | Inhibition of binding (%) [4] [%] | Inhibition of binding (%) [5] [%] | Inhibition of binding (%) [6] [%] | 90% neutralization VR1814, ARPE [7] [µg/mL] | 90% neutralization VR1814, MRC-9 [7] [µg/mL] | 50% neutralization VR1814, ARPE [8] [µg/mL] | 50% neutralization VR1814, MRC-9 [8] [µg/mL] | Inhibition of binding (%) [9] [%] | further results |
| --- | --- | --- | --- | --- | --- | --- | --- | --- | --- | --- | --- | --- | --- |
| B1 | 100 | 0.3 | 0.05 | 100 | 0 | 0 | 100 | 0.1 | 0.5 | ≤ 2 | ≤ 2 | 100 | – |
| B2 | 100 | – | – | 100 | 0 | 0 | 100 | 0.2 | 0.75 | – | – | 100 | – |
| B3 | 100 | 0.3 | 0.02 | 100 | 0 | 0 | 100 | 0.2 | 0.75 | ≤ 2 | ≤ 2 | 100 | – |
| B4 | – | – | – | – | – | – | – | – | – | – | – | – | Inhibition of binding (%) [10]: 0%; Inhibition of binding (%) [11]: 100%; Inhibition of binding (%) [12]: 0%; Inhibition of binding (%) [13]: 0%; Inhibition of binding (%) [14]: 0%; Inhibition of binding (%) [15]: 0%; Inhibition of binding (%) [16]: 0%; Inhibition of binding (%) [17]: 0%; Inhibition of binding (%) [18]: 0%; 90% neutralization VR1814, ARPE [19]: 0.008 µg/mL; 90% neutralization VR1814, MRC-9 [19]: > 10 µg/mL; 50% neutralization VR1814, ARPE [20]: < 0.001 µg/mL; 50% neutralization VR1814, MRC-9 [20]: > 2 µg/mL; Inhibition of binding (%) [21]: 0% |
| B5 | 100 | – | – | 100 | 0 | 0 | 100 | 0.4 | 10 | ≤ 2 | ≤ 2 | 100 | – |
| B6 | 0 | 2 | 0.11 | 0 | 100 | 0 | 0 | 0.15 | 1 | ≤ 2 | ≤ 2 | 0 | – |
